Results on two substances are retold here after patent US20180271995A1, “A PROTEIN CONJUGATE COMPRISING MULTIPLE PHYSIOLOGICALLY ACTIVE POLYPEPTIDES AND AN IMMUNOGLOBULIN FC REGION” (HANMI PHARM. CO., LTD., priority 2015, published 2018).

Values joined by “and” are separate entries in the source; they are usually repeats but may differ in a detail not shown here. Equal entries are not always repeated.

Broadly, the EC50 is the midpoint of the concentration-response curve.

Experiment [1] concerns mouse-derived 3T3-L1 cell line differentiated into adipocytes. Briefly: Glucose uptake test in 3T3-L1 cells differentiated into adipocytes (GOPOD residual glucose). It is filed as cell-based. The settings on record: 3T3-L1 adipocytes, 24 hours; read-out: Glucose uptake (Insulin) EC50. As for the experimental part: First, for analyzing the titer of insulin, a glucose uptake (or lipid synthesis ability) test was conducted using the mouse-derived 3T3-L1 cell line differentiated into adipocytes. […] The 3T3-L1 cell line was suspended in the medium for differentiation (DMEM containing 10% FBS), inoculated into a 48-well plate to a concentration of 5×10^4 cells/well, and cultured at 37° C. for 48 hours. […] The mixtures was added to each well in an amount of 250 μL/well after removing the existing medium.
For the glucose uptake test, the cells terminally differentiated into adipocytes were washed once with serum-free DMEM medium and serum-free DMEM medium was added into each well in an amount of 250 μL to induce serum depletion for 4 hours. […] Each of the thus-prepared samples was added to the cells in an amount of 250 μL, respectively, and cultured in a 5% CO2 incubator at 37° C. for 24 hours. For the measurement of the residual amount of glucose in the medium upon completion of cultivation, 200 μL of the medium was collected, diluted 5-fold with D-PBS, respectively, and subjected to GOPOD analysis (GOPOD Assay Kit, Megazyme, Cat. No. K-GLUC). The residual glucose concentration in the medium was calculated based on the absorbance of the standard glucose solution, and EC50 values for each of the samples with respect to glucose uptake ability was calculated and the result is shown in Table 9 below.

Experiment [2] deals with human insulin receptor β (human) (UniProt P06213). Briefly: cell-based or functional assay.
Experiment [3] has as its target human GLP-1 receptor (human) (UniProt P43220). Briefly: cell-based or functional assay.

As for human insulin, in experiment [1], the EC50 was 9 nM and 11 nM.
For the substance Immunoglobulin Fc, the IR-β phosphorylation EC50 in experiment [2] was more than 1000 nM. Further, in experiment [3], the cAMP assay EC50 is more than 100 nM.
